Consider 33 molecules from patent publication US20160145328A1 (published 2016).

The labels stand for the following.
B1: DP47 VH A33D (other, name in Kabat numbering)
VH: QVQLLESGGGLVQPGGSLRLSCAASGFTFSSYDMSWVRQAPGKGLEWVSAISGSGGSTYYADSVKGRFTISRDNSKNTLYLQMNSLRAEDTAVYYCAKSYGAFDYWGQGTLVTVSS
B2: DP47 VH S35G (other, name in Kabat numbering)
VH: B1 VH with D33A, S35G
B3: DP47 VH T28R (other, name in Kabat numbering)
VH: B1 VH with T28R, D33A
B4: DP47 VH S31D (other, name in Kabat numbering)
VH: B1 VH with S31D, D33A
B5: DP47 VH Y32E (other, name in Kabat numbering)
VH: B1 VH with Y32E, D33A
B6: DP47 VH G54D (other, name in Kabat numbering)
VH: B1 VH with D33A, G55D
B7: DP47 VH A50D (other, name in Kabat numbering)
VH: B1 VH with D33A, A50D
B8: DP47 VH S52D (other, name in Kabat numbering)
VH: B1 VH with D33A, S52D
B9: DP47 VH S53D (other, name in Kabat numbering)
VH: B1 VH with D33A, S54D
B10: DP47 VH S35D + S30D (other, name in Kabat numbering)
VH: B1 VH with S30D, D33A, S35D
B11: DP47 VH T28D + Y32D (other, name in Kabat numbering)
VH: B1 VH with T28D, Y32D, D33A
B12: DP47 VH T28D + S30D (other, name in Kabat numbering)
VH: B1 VH with T28D, S30D, D33A
B13: DP47 VH S35D + A33D (other, name in Kabat numbering)
VH: B1 VH with S35D
B14: DP47 VH S35D + S31D (other, name in Kabat numbering)
VH: B1 VH with S31D, D33A, S35D
B15: DP47 VH T28D + S35D (other, name in Kabat numbering)
VH: B1 VH with T28D, D33A, S35D
B16: DP47 VH T28D + A33D (other, name in Kabat numbering)
VH: B1 VH with T28D
B17: DP47 VH T28D + S31D (other, name in Kabat numbering)
VH: B1 VH with T28D, S31D, D33A
B18: DP47 VH S35D + Y32D (other, name in Kabat numbering)
VH: B1 VH with Y32D, D33A, S35D
B19: DP47 VH G26E (other, name in Kabat numbering)
VH: B1 VH with G26E, D33A
B20: DP47 VH G26D (other, name in Kabat numbering)
VH: B1 VH with G26D, D33A
B21: DP47 VH A40D (other, name in Kabat numbering)
VH: B1 VH with D33A, A40D
B22: DP47 VH S35E (other, name in Kabat numbering)
VH: B1 VH with D33A, S35E
B23: DP47 VH T28D (other, name in Kabat numbering)
VH: B1 VH with T28D, D33A
B24: DP47 VH T28E (other, name in Kabat numbering)
VH: B1 VH with T28E, D33A
B25: DP47 VH S30E (other, name in Kabat numbering)
VH: B1 VH with S30E, D33A
B26: DP47 VH A40E (other, name in Kabat numbering)
VH: B1 VH with D33A, A40E
B27: DP47 VH S30D (other, name in Kabat numbering)
VH: B1 VH with S30D, D33A
B28: DP47 VH A33E (other, name in Kabat numbering)
VH: B1 VH with D33E
B29: DP47 VH Y32D (other, name in Kabat numbering)
VH: B1 VH with Y32D, D33A
B30: DP47 VH Q39E (other, name in Kabat numbering)
VH: B1 VH with D33A, Q39E
B31: DP47 VH S35D (other, name in Kabat numbering)
VH: B1 VH with D33A, S35D
B32: DP47 VH Q39D (other, name in Kabat numbering)
VH: B1 VH with D33A, Q39D
B33: DP47 VH S31E (other, name in Kabat numbering)
VH: B1 VH with S31E, D33A

Numbering of substitutions follows the chain as printed. In names and notes the source's numbering stands.

The first assay addresses T1, protein A (UniProt P38507 37-477).
T1 construct: also called Protein A superantigen
The assay can be described thus: Heat/Cool phage ELISA: phage-displayed VH, 80 C 10 min then 4 C 10 min, captured on coated protein A; signal as % of untreated sample. As for the experimental part:
(§1) The aggregation-resistance of clones was analyzed by measuring retention of signal after heat incubation in a phage ELISA format (McCafferty et al., 1990; Jespers et al., 2004). Wells of a Nunc Maxisorp Immuno-plate were coated overnight with protein A at a concentration of about 5 μg/ml in phosphate-buffered saline (PBS). The plate was washed once with PBS and blocked with about 4% (w/v) milk powder diluted in PBS (MPBS). Single colonies were picked from agar plates and grown overnight in 2×TY medium (containing about 16 g/L tryptone; about 10 g/L yeast extract; about 5 g/L NaCl, pH 7.0) supplemented with about 15 μg/ml tetracycline shaking at about 30° C. Cells were removed by centrifugation and phages were biotinylated directly in the culture supernatant by adding biotin-PEO₄-N-hydroxysuccinimide (Pierce; about 50 μM final concentration). For heat selection, supernatant was first incubated at about 80° C. for about 10 min and then at about 4° C. for about 10 min. Supernatant was added to the blocked ELISA wells. After three washes with PBS, bound phage particles were detected using an Extravidin-HRP conjugate (Sigma) and 3,3′,5,5′-tetramethylbenzidine (TMB) substrate. Absorbance was calculated by subtracting measurements at 450 and 650 nm.
Single amino acid changes in the CDR1 region of the DP47 VH domain, and combinations thereof, were constructed and tested for aggregation-resistance, as detailed above (see the Materials and Methods section). […] Correctly folded VH were captured by protein A ELISA and the absorbance signal of the treated sample was calculated as a percentage of the untreated sample.
(In general: In an ELISA, binding on a coated surface is turned into a signal by an enzyme label.)
Consider B1, for which the “Retained binding to protein A” value turned out to be 26%.
With B2, the “Retained binding to protein A” value amounted to 4%.
The same measure, in the same setting: the value for B3 was 2%.
Still for that read-out and setting: under B4 stands 31%; under B5, 41%.

The next assay deals with T1, protein A. Described as above. This is another data set of the same source. The method, then:
as §1
To identify residues in CDR2 that confer aggregation-resistance on a VH containing protein aspartic acid (D) was substituted for surface-exposed residues within the putative CDR2 of DP47 VH with aspartic acid (positions 50, 52, 52a, 53, 54).
Take B6: the “Retained binding to protein A (%)” value was found to be 1.3%.
The same measure, in the same setting: the value for B7 was 2.9%.
Same read-out and setting: the value for B8 was 3.9%; that for B9 was 3.8%.

The target of another assay is T1, protein A. The description is as above. The source holds these as a separate data set. The method, then:
as §1
VH domains were produced comprising negatively charged amino acids at positions 28 and/or 35 in CDR1 of DP47 and at least one other position, as set out in Table 7. Aggregation-resistance of the VH domains was assessed using the “Heat/Cool” assay as described in Example 1.2.
For the molecule B10, the “Retained binding to protein A (%)” value came to 43.5%.
For B11, the “Retained binding to protein A (%)” value came out at 64.7%.
Same read-out and setting: the value for B12 was 39.4%; that for B13 was 40.3%; that for B14 was 48.3%.
The same measure, in the same setting: the value for B15 was 45.8%; that for B16 was 62%; that for B17 was 44.8%.
On the same count and under the same terms, under B18 stands 61%.

The target of a further assay is T1, protein A. The assay is described as above. The source holds these as a separate data set. As for the experimental part:
as §1
To identify additional residues in CDR1 that confer aggregation-resistance on VH, surface-exposed residues of DP47 between positions 26 to 35 (numbering according to the Kabat numbering system) were substituted for aspartic acid (D) or glutamic acid (E). Framework residues at positions 39 and 40 were also substituted for aspartic acid (D) or glutamic acid (E). […] Correctly folded VH were captured by protein A ELISA and the absorbance signal of the treated sample was calculated as a percentage of the untreated sample.
Take B1: the “Retained binding to protein A (%)” value is 10%.
Consider B19, for which the “Retained binding to protein A (%)” value is 1.8%.
Still for that read-out and setting: the value for B4 was 21.3%; that for B20 was 6.1%; that for B21 was 2.8%.
In the case of B22, the “Retained binding to protein A (%)” value was found to be 4.5%.
Same read-out and setting: under B5 stands 24.8%; under B23, 25.1%; under B24, 6.5%.
On the same count and under the same terms, the value for B25 was 2.1%.
On the same count and under the same terms, the value for B26 was 1.9%.
On to B27, for which the “Retained binding to protein A (%)” value came to 21.8%.
Same read-out and setting: under B28 stands 2%.
With B29, the “Retained binding to protein A (%)” value is 41.8%.
Regarding B30, the “Retained binding to protein A (%)” value stood at 2.5%.
With B31, the “Retained binding to protein A (%)” value turned out to be 12.8%.
As to B32, the “Retained binding to protein A (%)” value was 3.7%.
On the same count and under the same terms, the value for B33 was 6.1%.
